Measurements taken from patent publication US20250243290A1.
Values joined by “and” are separate entries in the source; they are usually repeats but may differ in a detail not shown here. Equal entries are not always repeated. Where two headings read alike, the source gives them in different places.

Tests used:
Assay in all cases: peptide-array ELISA [Con't]
[1] = target: DVV2…
E2LS2…2RPGW = target: E2LS2…2RPGW
E2LSCGSR2…2T = target: E2LSCGSR2…2T
[2] = target: EGCRL2…
LCAPLRK2…2APGTFSN = target: LCAPLRK2…2APGTFSN
NWVPE2…2 = target: NWVPE2…2
PE2LS2…2…2 = target: PE2LS2…2…2
QNRI2…2R = target: QNRI2…2R
[3] = target: Y2…
[4] = target: …2GGSGGL2…
…2RPGW = target: …2RPGW
…2RPG = target: …2RPG
2LS2…2R = target: 2LS2…2R
[5] = target: 2LS2…2…
2LSCGSR2…2T2 = target: 2LSCGSR2…2T2
2LSCGSR2…2T = target: 2LSCGSR2…2T
2TREQNRI2…2RL = target: 2TREQNRI2…2RL
2…2TREQNRIC = target: 2…2TREQNRIC
[6] = target: 2…
[7] = target: C22SK2…2CAPLRK2…
[8] = target: C22SK2…2CAV2…
[9] = target: C22SK2…2CNASMDAV2TSTSPTRC
[10] = target: C2LS2GSR2…2…
CDVV2KP2…2TSTSPTRC = target: CDVV2KP2…2TSTSPTRC
CG2RL2APLRK2…22SK2C = target: CG2RL2APLRK2…22SK2C
CGSR2…2 = target: CGSR2…2
[11] = target: CNASMDAV2…2…
CQA2TREQNRI2T2…2RLC = target: CQA2TREQNRI2T2…2RLC
[12] = target: CQTAQM22SK2SPGQHCQA2TREQNRI2T2RPC
CQTAQM22SK2…2RLC = target: CQTAQM22SK2…2RLC
CTSSTDI2RPHQI2…2TSTSPTRC = target: CTSSTDI2RPHQI2…2TSTSPTRC
CTV2DS2…2TSTSPTRC = target: CTV2DS2…2TSTSPTRC
[13] = target: DI2…
E2LS2…2…2 = target: E2LS2…2…2
[14] = target: E2LSCGSR2…
KQEG2…2APGTFSN = target: KQEG2…2APGTFSN
[15] = target: KQEGCRL2…2…
LS2…2…2 = target: LS2…2…2
[16] = target: LSCGSR2…
NRI2…2RL = target: NRI2…2RL
[17] = target: PE2LSCGSR2…
[18] = target: QEGCRL2…
S2…2RPGW = target: S2…2RPGW
V2…2NV = target: V2…2NV
[19] = target: WVPE2…
[20] = target: Y2…; remark: listed apart in the source
…22SK2CNASMDAV2TSTSPTRC = target: …22SK2CNASMDAV2TSTSPTRC
…2LS2…2TSTSPTRC = target: …2LS2…2TSTSPTRC
…2N = target: …2N
…2R = target: …2R
…2SK2SPGQ = target: …2SK2SPGQ
…2TREQNRIC = target: …2TREQNRIC
…2TSTSPTRC = target: …2TSTSPTRC
[21] = target: …2…
…2…, sequence (peptide, as listed by the source): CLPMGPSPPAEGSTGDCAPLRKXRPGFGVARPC

…2TSTSPTRC, sequence (peptide, as listed by the source): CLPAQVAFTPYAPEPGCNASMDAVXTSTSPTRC
…2N, sequence (peptide, as listed by the source): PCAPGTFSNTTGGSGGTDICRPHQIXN
EGCRL2…, sequence (peptide, as listed by the source): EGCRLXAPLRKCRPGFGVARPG
QEGCRL2…, sequence (peptide, as listed by the source): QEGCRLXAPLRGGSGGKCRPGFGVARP
…2TREQNRIC, sequence (peptide, as listed by the source): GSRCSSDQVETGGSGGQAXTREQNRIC
LSCGSR2…, sequence (peptide, as listed by the source): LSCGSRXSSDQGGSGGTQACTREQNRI
…2RPG, sequence (peptide, as listed by the source): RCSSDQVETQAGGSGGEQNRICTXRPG
DI2…, sequence (peptide, as listed by the source): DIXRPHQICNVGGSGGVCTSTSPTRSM
…2R, sequence (peptide, as listed by the source): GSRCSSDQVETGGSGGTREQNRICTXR

**Q.** What does the source list for agonistic TNFR2 antibody MR2-1?
**A.** Raw luminescence data [1]: 243; Raw luminescence data (E2LS2…2RPGW): 233; Raw luminescence data (E2LSCGSR2…2T): 225; Raw luminescence data [2]: 239; Raw luminescence data (LCAPLRK2…2APGTFSN): 262; Raw luminescence data (NWVPE2…2): 258; Raw luminescence data (PE2LS2…2…2): 262; Raw luminescence data (QNRI2…2R): 242; Raw luminescence data [3]: 256; Raw luminescence data [4]: 250; Raw luminescence data (…2RPGW): 276 and 272; Raw luminescence data (…2RPG): 257; Raw luminescence data (2LS2…2R): 181; Raw luminescence data [5]: 190; Raw luminescence data (2LSCGSR2…2T2): 179; Raw luminescence data (2LSCGSR2…2T): 176; Raw luminescence data (2TREQNRI2…2RL): 186; Raw luminescence data (2…2TREQNRIC): 184; Raw luminescence data [6]: 179; Raw luminescence data [7]: 191; Raw luminescence data [8]: 181; Raw luminescence data [9]: 181; Raw luminescence data [10]: 187; Raw luminescence data (CDVV2KP2…2TSTSPTRC): 191; Raw luminescence data (CG2RL2APLRK2…22SK2C): 183; Raw luminescence data (CGSR2…2): 172; Raw luminescence data [11]: 173; Raw luminescence data (CQA2TREQNRI2T2…2RLC): 178; Raw luminescence data [12]: 176; Raw luminescence data (CQTAQM22SK2…2RLC): 179; Raw luminescence data (CTSSTDI2RPHQI2…2TSTSPTRC): 181; Raw luminescence data (CTV2DS2…2TSTSPTRC): 182; Raw luminescence data [13]: 174; Raw luminescence data (E2LS2…2…2): 181; Raw luminescence data [14]: 189; Raw luminescence data (KQEG2…2APGTFSN): 180; Raw luminescence data [15]: 191; Raw luminescence data (LS2…2…2): 187; Raw luminescence data [16]: 181; Raw luminescence data (NRI2…2RL): 184; Raw luminescence data [17]: 180; Raw luminescence data [18]: 173; Raw luminescence data (S2…2RPGW): 177; Raw luminescence data (V2…2NV): 177; Raw luminescence data [19]: 186 and 181; Raw luminescence data [20]: 175; Raw luminescence data (…22SK2CNASMDAV2TSTSPTRC): 173; Raw luminescence data (…2LS2…2TSTSPTRC): 188; Raw luminescence data (…2N): 175; Raw luminescence data (…2R): 180; Raw luminescence data (…2SK2SPGQ): 181 and 173; Raw luminescence data (…2TREQNRIC): 176; Raw luminescence data (…2TSTSPTRC): 172; Raw luminescence data [21]: 180
